Residue numbers refer to the chain shown, from its start.
B1: mouse 9F5 antibody (antibody, mouse IgG1, V domains shown)
VH: EVQLQQSGAELVRPGASVKLSCTASGFNIKDDYMNWVKQRPERGLEWIGWIDPENGDTEYASKFQGKATMTADTSSNTAYLQFSSLTSEDTAVYYCTTSNGWGQGTLVTVST
VL: DIVMTQAAFSNPVTLGTSASISCRSSKSLLHSNGITYLYWYLQKPGQSPQLLIYQMSNLASGVPDRFSSSGSGTDFTLRISRVEAEDVGVYYCAQNLELPLTFGAGTKLELK
modifications: here or on the partner: pHrodo label
B2: hu9F5VHv9/hu9F5VLv8_DIM8 (antibody, V domains shown)
VH: EVQLVQSGAEVKKPGATVKISCKASGFNIKDDYMNWVQQRPGKGLEWIGWIDPENGDTEYASKFQGRATMTADTSTNTAYMELSSLRSEDTAVYYCTTSNGWGQGTLVTVSS
VL: DIQMTQSPFSLPVTPGESASISCRSSKSLGHSNGITYLYWYQQKPGQSPQLLIYQKSNRASGVPNRFSSSGSGTDFTLKISRVEAEDVGVYYCAQNIELPLTFGQGTKLEIK
B3: hu9F5VHv9/hu9F5VLv8_DIM14 (antibody, V domains shown)
VH: B2 VH
VL: B2 VL with Q42G, K56G, R59T
B4: hu9F5VHv9/hu9F5VLv8_DIM17 (antibody, V domains shown)
VH: B2 VH
VL: B2 VL with G30S, Q42G, K56G, R59T
B5: hu9F5VHv9/hu9F5VLv8_DIM29 (antibody, V domains shown)
VH: B2 VH
VL: B2 VL with G30S, K56M
B6: hu9F5VHv9/hu9F5VLv8_DIM23 (antibody, V domains shown)
VH: B2 VH
VL: B2 VL with K56E, R59G
B7: hu9F5VHv10/hu9F5VLv9_DIM19 (antibody, V domains shown)
VH: B2 VH with Q38K, G42E
VL: B2 VL with G30S, Q42I, K56I, N65D
B8: hu9F5VHv9/hu9F5VLv8_DIM25 (antibody, V domains shown)
VH: B2 VH
VL: B2 VL with Q42I, K56E, I97G
B9: hu9F5VHv10/hu9F5VLv9_DIM2 (antibody, V domains shown)
VH: B2 VH with Q38K, G42E
VL: B2 VL with G30S, K56G, N65D
B10: hu9F5VHv9/hu9F5VLv8_DIM12 (antibody, V domains shown)
VH: B2 VH
VL: B2 VL with Q42G, K56G, I97G
B11: hu9F5VHv10/hu9F5VLv9_DIM20 (antibody, V domains shown)
VH: B2 VH with Q38K, G42E
VL: B2 VL with G30S, K56I, R59G, N65D
B12: hu9F5VHv10/hu9F5VLv9_DIM11 (antibody, V domains shown)
VH: B2 VH with Q38K, G42E
VL: B2 VL with Q42G, K56G, N65D
notes: also called H10L9-DIM11; H10L9DIM11
B13: hu9F5VHv9/hu9F5VLv8_DIM21 (antibody, V domains shown)
VH: B2 VH
VL: B2 VL with G30S, K56I, R59G, I97L
B14: hu9F5VHv9/hu9F5VLv8_DIM22 (antibody, V domains shown)
VH: B2 VH
VL: B2 VL with G30S, K56E
B15: hu9F5VHv9/hu9F5VLv8_DIM18 (antibody, V domains shown)
VH: B2 VH
VL: B2 VL with G30D, Q42G, K56G
B16: hu9F5VHv9/hu9F5VLv8_DIM28 (antibody, V domains shown)
VH: B2 VH
VL: B2 VL with G30S, Q42L, K56G
B17: hu9F5VHv10/hu9F5VLv9_DIM13 (antibody, V domains shown)
VH: B2 VH with Q38K, G42E
VL: B2 VL with Q42G, K56G, N65D, I97L
B18: hu9F5VHv10/hu9F5VLv9_DIM4 (antibody, V domains shown)
VH: B2 VH with Q38K, G42E
VL: B2 VL with G30S, K56G, N65D, I97G
B19: hu9F5VHv9/hu9F5VLv8_DIM11 (antibody, V domains shown)
VH: B2 VH
VL: B2 VL with Q42G, K56G
B20: hu9F5VHv9/hu9F5VLv8_DIM9 (antibody, V domains shown)
VH: B2 VH
VL: B2 VL with R59G
B21: hu9F5VHv9/hu9F5VLv8_DIM24 (antibody, V domains shown)
VH: B2 VH
VL: B2 VL with Q42I, K56E
B22: hu9F5VHv9/hu9F5VLv8_DIM26 (antibody, V domains shown)
VH: B2 VH
VL: B2 VL with G30I, Q42I, K56E, I97L
B23: hu9F5VHv9/hu9F5VLv8_DIM19 (antibody, V domains shown)
VH: B2 VH
VL: B2 VL with G30S, Q42I, K56I
B24: hu9F5VHv9/hu9F5VLv8_DIM13 (antibody, V domains shown)
VH: B2 VH
VL: B2 VL with Q42G, K56G, I97L
B25: hu9F5VHv10/hu9F5VLv9_DIM5 (antibody, V domains shown)
VH: B2 VH with Q38K, G42E
VL: B2 VL with K56G, N65D
B26: hu9F5VHv10/hu9F5VLv9_DIM1 (antibody, V domains shown)
VH: B2 VH with Q38K, G42E
VL: B2 VL with G30S, K56G, R59G, N65D
B27: hu9F5VHv10/hu9F5VLv9_DIM10 (antibody, V domains shown)
VH: B2 VH with Q38K, G42E
VL: B2 VL with G30S, R59G, N65D
B28: hu9F5VHv9/hu9F5VLv8_DIM20 (antibody, V domains shown)
VH: B2 VH
VL: B2 VL with G30S, K56I, R59G
B29: hu9F5VHv9/hu9F5VLv8_DIM16 (antibody, V domains shown)
VH: B2 VH
VL: B2 VL with Q42G, K56G, R59T, I97L
B30: hu9F5VHv9/hu9F5VLv8_DIM30 (antibody, V domains shown)
VH: B2 VH
VL: B2 VL with G30S, K56G, R59L
B31: hu9F5VHv10/hu9F5VLv9_DIM8 (antibody, V domains shown)
VH: B2 VH with Q38K, G42E
VL: B2 VL with N65D
B32: hu9F5VHv9/hu9F5VLv8_DIM15 (antibody, V domains shown)
VH: B2 VH
VL: B2 VL with Q42G, K56G, R59T, I97G
B33: hu9F5VHv9/hu9F5VLv8_DIM10 (antibody, V domains shown)
VH: B2 VH
VL: B2 VL with G30S, R59G
B34: hu9F5VHv9/hu9F5VLv8_DIM27 (antibody, V domains shown)
VH: B2 VH
VL: B2 VL with G30L, K56G

These binders were tested against pHrodo-labeled tau P301L soluble oligomer, P10636 (assay: cell-based or functional assay).
pHrodo-labeled tau P301L soluble oligomer, P10636, sequence (P10636 other isoform, or with tags, fused parts or gaps P301L P301L): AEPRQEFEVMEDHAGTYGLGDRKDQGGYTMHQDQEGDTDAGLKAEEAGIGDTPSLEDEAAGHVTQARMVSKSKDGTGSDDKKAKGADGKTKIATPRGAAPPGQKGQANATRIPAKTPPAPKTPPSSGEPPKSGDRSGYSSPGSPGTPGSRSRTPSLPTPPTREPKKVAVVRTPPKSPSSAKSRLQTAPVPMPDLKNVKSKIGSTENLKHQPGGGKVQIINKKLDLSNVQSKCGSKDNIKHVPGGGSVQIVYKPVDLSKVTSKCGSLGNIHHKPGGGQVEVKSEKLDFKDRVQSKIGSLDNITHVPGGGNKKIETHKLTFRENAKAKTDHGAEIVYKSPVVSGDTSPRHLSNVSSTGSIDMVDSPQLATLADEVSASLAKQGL

internalized pHrodo-tau in B103 cells (FACS), antibody at 0.061 µg/mL (% of maximum signal) | internalized pHrodo-tau in B103 cells (FACS), antibody at 0.244 µg/mL (% of maximum signal) | internalized pHrodo-tau in B103 cells (FACS), antibody at 0.98 µg/mL (% of maximum signal) | internalized pHrodo-tau in B103 cells (FACS), antibody at 3.9 µg/mL (% of maximum signal) | internalized pHrodo-tau in B103 cells (FACS), antibody at 15.625 µg/mL (% of maximum signal) | internalized pHrodo-tau in B103 cells (FACS), antibody at 62.5 µg/mL (% of maximum signal) | Binder
78.1 | 71.7 | 71 | 35.9 | 24.2 | 18.1 | B1

What follows are binders tested against T1, recombinant human 4R0N tau (human, UniProt P10636 2-758) (assay: SPR Biacore T200; antibody captured by anti-human Fc; tau as analyte; global 1:1 fit).
T1 construct: also called recombinant 4R0N human tau; P10636-6
T1 sequence (P10636 other isoform, or with tags, fused parts or gaps limits assumed): as the sequence (P10636 other isoform, or with tags, fused parts or gaps P301L P301L) above
Description: Target binding analysis was performed using a Biacore T200 to compare the binding affinity of humanized 9F5 variants to recombinant human 4R0N tau. Anti-Human Fc antibody was immobilized on sensor chip CM3 via amine coupling, and humanized 9F5 variants were captured to equivalent levels. Various concentrations of recombinant 4R0N human tau (ranging from 0.02 nM to 12.5 nM) were passed over the captured ligand at 50 μL/min in running buffer (HBS+0.05% P-20, 1 mg/mL BSA) for 180 seconds association/420 seconds dissociation as a single cycle. Data was blank subtracted to both an irrelevant sensor not containing antibody and 0 nM analyte concentration. Analysis was performed using a global 1:1 fit with Biacore Evaluation software.

Kd [nM] | koff [s⁻¹] | kon [M⁻¹ s⁻¹] | Binder
0.435 | 0.000576 | 1.32e+06 | B2
0.142 | 0.000188 | 1.33e+06 | B3
0.128 | 0.000326 | 2.54e+06 | B4
0.27 | 0.000534 | 1.98e+06 | B5
1.24 | 0.0832 | 6.69e+07 | B6
1.97 | 0.00688 | 3.49e+06 | B7
3.15 | 0.0409 | 1.3e+07 | B8
0.679 | 0.00184 | 2.72e+06 | B9
0.221 | 0.000429 | 1.94e+06 | B10
9.62 | 0.0334 | 3.47e+06 | B11
0.163 | 0.000287 | 1.76e+06 | B12
858 | 1.12 | 1.31e+06 | B13
0.39 | 0.000878 | 2.25e+06 | B14
0.0447 | 9.39e-05 | 2.1e+06 | B15
0.0692 | 0.000217 | 3.13e+06 | B16
0.508 | 0.00116 | 2.28e+06 | B17
1.74 | 0.00439 | 2.53e+06 | B18

Kd [nM] | koff [s⁻¹] | kon [M⁻¹ s⁻¹] | Binder
0.0772 | 0.00011 | 1.42e+06 | B19
5.07 | 0.0116 | 2.29e+06 | B20
0.454 | 0.000993 | 2.19e+06 | B21
1.04 | 0.004 | 3.84e+06 | B22
0.597 | 0.00215 | 3.61e+06 | B23
0.266 | 0.000439 | 1.65e+06 | B24
0.542 | 0.000919 | 1.7e+06 | B25
1.47 | 0.00395 | 2.69e+06 | B26
3.77 | 0.026 | 6.89e+06 | B27
12.3 | 0.0694 | 5.64e+06 | B28
0.355 | 0.000808 | 2.27e+06 | B29
0.438 | 0.000447 | 1.02e+06 | B30
0.859 | 0.00232 | 2.71e+06 | B31
0.873 | 0.000732 | 839000 | B32
3.92 | 0.0741 | 1.89e+07 | B33
0.16 | 0.000385 | 2.41e+06 | B34

— patent US20220275067A1 (PROTHENA BIOSCIENCES, published 2022)
